Data on three molecules can be found in publication PMC6419104, “Structural basis of guanine nucleotide exchange for Rab11 by SH3BP5” (Life Science Alliance, 2019).

Experiment [1] addresses Rab11a (1–211) S42A (human) (UniProt P62491).
The target of experiment [2] is Rab11a (1–211) L38A (human) (UniProt P62491).
Experiment [3] concerns the target Rab11a (1–211) K41A (human) (UniProt P62491).
In experiment [4] the target is Rab11a (1–211) E39A (human) (UniProt P62491).
Experiment [5] addresses Rab11a (1–211) S40A (human) (UniProt P62491).
In the next experiment the target is Rab11a (1–173) (human) (UniProt P62491).
The next experiment deals with T1, SH3BP5 (10–276) (human, UniProt O60239 10-276).
T1 construct: Residues 10–41 and 268–276 were invisible in the electron density; The purification of this construct and of the complex is not described; also called wild-type SH3BP5 (10–276); source: E. coli Rosetta (DE3)
T1 sequence (looked up): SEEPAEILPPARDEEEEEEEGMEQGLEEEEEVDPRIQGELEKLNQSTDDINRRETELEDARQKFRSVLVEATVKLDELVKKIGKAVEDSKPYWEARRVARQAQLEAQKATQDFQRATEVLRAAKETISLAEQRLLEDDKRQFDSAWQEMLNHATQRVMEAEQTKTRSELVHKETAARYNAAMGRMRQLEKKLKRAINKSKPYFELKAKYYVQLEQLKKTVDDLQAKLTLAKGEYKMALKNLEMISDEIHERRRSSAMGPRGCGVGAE
In words: crystal structure; SH3BP5 (10–276)–Rab11a (1–173) complex at 6.2 g/l, sitting drop vapor diffusion at 20°C; reservoir 0.4–0.75 M NaCl, 0.1 M NaH2PO4 (pH 6.8), 15–17% PEG2000; 3.8 Å; four complexes in the asymmetric unit. The note with it: both partners purified.

Substitutions are numbered along the chain they refer to. Names may count otherwise.

B1: SH3BP5 (41–266; R260A/R261A/R262A) (domain or fragment)
chain: VDPRIQGELEKLNQSTDDINRRETELEDARQKFRSVLVEATVKLDELVKKIGKAVEDSKPYWEARRVARQAQLEAQKATQDFQRATEVLRAAKETISLAEQRLLEDDKRQFDSAWQEMLNHATQRVMEAEQTKTRSELVHKETAARYNAAMGRMRQLEKKLKRAINKSKPYFELKAKYYVQLEQLKKTVDDLQAKLTLAKGEYKMALKNLEMISDEIHEAAASSAM
As to B1, the GEF activity: Mant-GDP release from Rab11a by fluorescence, with GppNHp (% of the wild-type activity) in experiment [1] amounted to 25; in experiment [2], 50; in experiment [3], 25; in experiment [4], 50; in experiment [5] it was 25.

B2: SH3BP5-RA E251A (domain or fragment)
chain: B1 chain with E211A
Regarding B2, the GEF activity: Mant-GDP release from Rab11a by fluorescence, with GppNHp (%, relative to wild type) with Rab11a (1–173) (human) is 50.

B3: Rab11a (1–173) (domain or fragment, human, UniProt P62491 1-173, looked up)
chain: MGTRDDEYDYLFKVVLIGDSGVGKSNLLSRFTRNEFNLESKSTIGVEFATRSIQVDGKTIKAQIWDTAGQERYRAITSAYYRGAVGALLVYDIAKHLTYENVERWLKELRDHADSNIVIMLVGNKSDLRHLRAVPTDEARAFAEKNGLSFIETSALDSTNVEAAFQTILTEIY
notes: human Rab11a, residues 1–173; Nucleotide-free in the complex structure (a phosphate ion on the P loop); loaded with Mant-GDP in the GEF assay; source: E. coli Rosetta (DE3), purified (Ni-NTA, Ulp1 cleavage, Superdex200, second Ni-NTA); not shown: His6-SUMO, N-terminal, cleaved
Turning to B3, the binding result in the experiment with SH3BP5 (10–276) is “binds”.
